Assays:
human NPR1-ANP complex = target: T1, human NPR1-ANP complex (human, UniProt P01160 124-151, limits assumed); assay: ELISA, IgG titrated on the antigen with 250 fold molar excess of ANP [cont.]
T1 construct: Receptor antigen measured in the presence of ANP; also called hNPR1 + ANP; hNPR1-ANP-complex
T1 sequence: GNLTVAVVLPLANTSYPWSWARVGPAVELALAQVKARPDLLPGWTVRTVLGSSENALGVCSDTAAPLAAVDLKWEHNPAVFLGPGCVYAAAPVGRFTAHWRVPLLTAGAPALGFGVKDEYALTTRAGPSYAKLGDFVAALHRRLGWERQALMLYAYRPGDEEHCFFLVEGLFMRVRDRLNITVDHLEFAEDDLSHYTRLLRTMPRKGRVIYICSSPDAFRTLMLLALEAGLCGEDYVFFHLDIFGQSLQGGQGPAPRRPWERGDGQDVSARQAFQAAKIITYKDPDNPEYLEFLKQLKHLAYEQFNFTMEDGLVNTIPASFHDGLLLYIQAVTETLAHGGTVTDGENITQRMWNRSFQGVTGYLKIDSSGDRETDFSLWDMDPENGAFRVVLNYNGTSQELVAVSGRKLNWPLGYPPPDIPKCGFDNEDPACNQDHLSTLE
T1 sequence (peptide): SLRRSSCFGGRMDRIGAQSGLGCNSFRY

rat NPR1-ANP complex = target: T2, rat NPR1-ANP complex (rat); assay: as above
T2 construct: Rat receptor antigen measured in the presence of ANP; also called rNPR1 + ANP; rNPR1-ANP-complex

[1] = target: T3, constitutively active human NPR1 mutant (W74R), recombinant antigen (human, UniProt P16066 33-473); assay: ELISA, IgG titrated on the antigen without ANP
T3 construct: also called W74R hNPR1
T3 sequence: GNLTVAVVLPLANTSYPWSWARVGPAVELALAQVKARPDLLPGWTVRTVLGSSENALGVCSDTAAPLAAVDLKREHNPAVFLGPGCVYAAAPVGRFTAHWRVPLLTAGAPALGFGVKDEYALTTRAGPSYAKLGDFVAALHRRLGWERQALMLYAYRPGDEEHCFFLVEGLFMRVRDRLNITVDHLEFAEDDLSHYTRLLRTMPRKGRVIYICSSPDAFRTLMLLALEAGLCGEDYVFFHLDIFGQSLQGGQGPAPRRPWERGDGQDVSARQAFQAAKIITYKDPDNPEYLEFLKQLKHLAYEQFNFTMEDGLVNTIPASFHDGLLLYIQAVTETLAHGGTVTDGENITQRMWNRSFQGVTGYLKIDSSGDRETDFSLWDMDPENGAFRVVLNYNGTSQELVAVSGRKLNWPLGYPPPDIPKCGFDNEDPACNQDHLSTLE

B1: XX08 (antibody, human IgG1, kappa, L234A L235A, V domains shown)
VH: EVQLLESGGGLVQPGGSLRLSCAASGFTFNTHYIHWVRQAPGKGLEWVSSIGGQGGMTLYADSVKGRFTISRDNSKNTLYLQMNSLRAEDTAVYYCARERGYVYYHMFDPWGQGTLVTVSS
VL: DIVLTQSPATLSLSPGERATLSCRASQSITRNYLAWYQQKPGQAPRLLIYGASSRATGIPARFSGSGSGTDFTLTISSLEPEDFAVYYCQQHSMYPRTFGQGTKVEIKR
notes: the panel axis reads IgG conc; [nM]; the list MOLECULES holds only the FabCys format; also called XX08 IgG; XX08_LALA
EC50 (read off the curve) (human NPR1-ANP complex): ~0.5 nM

B2: XX07 IgG (antibody, V domains shown)
VH: QVQLLESGGGLVQPGGSLRLSCAASGFTFSSYWMNWVRQAPGKGLEWVSAISSDGSYTYYADSVKGRFTISRDNSKNTLYLQMNSLRAEDTAVYYCARDRYSMIYSYGAGAFDYWGQGTLVTVSS
VL: DIQMTQSPSSLSASVGDRVTITCRASQGISSYLAWYQQKPGKAPKLLIYTASTLQSGVPSRFSGSGSGTDFTLTISSLQPEDFATYYCQQIWTVPRTFGQGTKVEIKR
notes: also called XX07_LALA
EC50 (read off the curve) (rat NPR1-ANP complex): ~0.2 nM

B3: YY02 IgG (YY02_LALA) (antibody, V domains shown)
VH: EVQLVESGGGLVKPGGSLRLSCAASGFTFSSYSMNWVRQAPGKGLEWVSSISSSSSYIYYADSVKGRFTISRDNAKNSLYLQMNSLRAEDTAVYYCARSGYRGVYGFDYWGQGTLVTVSS
VL: DIQMTQSPSSVSASVGDRVTITCRASQGISSWLAWYQQKPGKAPKLLIYAASSLQSGVPSRFSGSGSGTDFTLTISSLQPEDFATYYCQQYYHSPLTFGQGTKVEIKR
EC50 (read off the curve) [1]: ~2 nM

From patent US20200392225A1 (Novartis, published 2020)
